Measurements taken from patent publication US20210347873A1 (SHANGHAI PHARMAEXPLORER, published 2021).

B1: 93C6F10D3 (antibody, V domains shown)
VH: EVQLVESGGGLVTPGGSLKLSCVASGFAFSTYGMSWVRQTPERRLEWVAYISGGGGSIYYPDSVKGRFTISRDNAKNILYLQMSSLKSEDTAMYHCTRHPDLLLRYDYALDHWGQGTSVTVSS
VL: DIQMTQSPASLSASVGETVTITCRASENIHIYLAWYQQKQGKSPQLLVYNGKTLADGVPSRFSGSGSGTQYSLKINTLQPEDFGNYYCQHFWNSTWTFGGGTKLEIK
B2: 97E7B3F2 (antibody, V domains shown)
VH: EVQLQQSGPELVKSGASVKISCKASGYTFTDHKMHWVKQSHGKSLEWIGYISPYNGGTGYNQKFKSKVTLTVDISSSTAYMELRSLTSEDSAVYYCARWGFYDVMDSWGQGTSVTVSS
VL: DVLLTQTPLSLPVSLGDQASISCRSSQTIVHIIGDTYLEWYLQKPGQSPKLLIYKVSNRFSGVPDRFSGSGAGTDFTLKISRVEAEDLGVYYCFQGSHVPRTFGGGTKLEIK

Tests used:
human APRIL protein [1] = biological target: T1, human APRIL protein (human, UniProt O75888 105-250, limits assumed); assay: ELISA, coated APRIL; antibody 2.67 nM
T1 construct: Bought protein; also called recombinant APRIL protein
T1 sequence (looked up): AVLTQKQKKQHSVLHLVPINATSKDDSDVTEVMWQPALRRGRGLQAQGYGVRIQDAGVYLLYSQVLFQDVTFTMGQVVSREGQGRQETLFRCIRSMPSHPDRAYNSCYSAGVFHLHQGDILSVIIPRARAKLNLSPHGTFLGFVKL
Method: (§1) To test whether the BLyS antibody cross-reacted with human APRIL protein, APRIL protein (purchased from R & D Systems) was first diluted to a final concentration of 1.0 μg/mL with PBS, and then 50 μL of which per well was aliquoted into a 96-well ELISA plate, and the plate was subsequently sealed with plastic film and incubated at 4° C. overnight. On the next day the plate was rinsed four times with the plate washing buffer [PBS buffer containing 0.0500 (v/v) Tween20] and a blocking solution [PBS buffer containing 0.05 (v/v) Tween20 and 1 (w/w) BSA] was added, then the protein was blocked at 37° C. for 2 hours. The blocking solution was removed and 100 μL per well of the lead antibodies prepared in Embodiment 1 and 2 were added in. After incubation for 1 hour at 37° C., the plate was rinsed four times with the plate washing buffer [PBS buffer containing 0.05 (v/v) Tween20]. HRP-labeled (horseradish peroxidase) secondary antibody (purchased from Sigma) was added in and incubated at 37° C. for 1 hour. The plate was then rinsed four times with the plate washing buffer [PBS buffer containing 0.050 (v/v) Tween20]. 100 μL of TMB substrate was aliquoted into each well and after incubation at room temperature for 5 minutes, 100 μL of stop solution (1.0 N HCl) was aliquoted into each well. A₄₅₀ₙₘ values were read via an ELISA plate reader (SpectraMax M5e purchased from Molecular Devices) and the results were shown in FIGS. 6A-6B and Table 11. […] As used herein, the IgG control is human IgG and the data in the table is GD number at 450 nm.

human APRIL protein [2] = biological target: T1, human APRIL protein; assay: ELISA, coated APRIL; antibody 0.107 nM
Method: as §1

human APRIL protein [3] = biological target: T1, human APRIL protein; assay: ELISA, coated APRIL; antibody 0.00427 nM
Method: as §1

human APRIL protein [4] = biological target: T1, human APRIL protein; assay: ELISA, coated APRIL; antibody 0.534 nM
Method: as §1

human APRIL protein [5] = biological target: T1, human APRIL protein; assay: ELISA, coated APRIL; antibody 0.0213 nM
Method: as §1

human APRIL protein [6] = biological target: T1, human APRIL protein; assay: ELISA, coated APRIL; antibody 13.3 nM
Method: as §1

human APRIL protein [7] = biological target: T1, human APRIL protein; assay: ELISA, coated APRIL; antibody 0 nM (blank)
Method: as §1

human APRIL protein [8] = biological target: T1, human APRIL protein; assay: ELISA, coated APRIL; antibody 66.7 nM
Method: as §1

OD450 nm (human APRIL protein [1]) | OD450 nm (human APRIL protein [2]) | OD450 nm (human APRIL protein [3]) | OD450 nm (human APRIL protein [4]) | OD450 nm (human APRIL protein [5]) | OD450 nm (human APRIL protein [6]) | OD450 nm (human APRIL protein [7]) | OD450 nm (human APRIL protein [8]) | Binder
0.0746 | 0.0551 | 0.0546 | 0.0584 | 0.0568 | 0.171 | 0.0568 | 0.57 | B1
0.0707 | 0.0705 | 0.0535 | 0.0556 | 0.0537 | 0.182 | 0.0533 | 0.62 | B2
